In patent US20180244802A1 (DEUTSCHES ZENTRUM FUR NEURODEGENERATIVE ERKRANKUNGEN E V …, published 2018):

B1: 008-218 (antibody, human IgG1, V domains shown)
VH: EVQLVESGGGLVQPGRSLRLSCAASGFTFDDYAMHWVRQVPGKGLEWVSGISWSSGSIGYADSVKGRFTISRDNAKNSLYLQMNSLRAEDTALYYCAKDRASSWYAYGMDVWGQGTLVTV
VL: NFMLTQPHSVSESPGKTVTISCTRSSGSIASNYVQWYQQRPGSSPTTVIYDDNQRPSGVPNRFSGSIDSSSNSASLIISGLKTEDEADYYCQSTRVFGGGTKLTVL
notes: also called 008-218-HC; 008-218-LC
B2: 007-168 (antibody, human IgG1, V domains shown)
VH: VQLVQSGAEAKKPGESLKISCKASGYSFTTFWIGWVRQMPGSGLEWIGIIYPGDSDTRYSPSFQGHVTISADRSTSTAYLQWSSLKASDTAMYYCARSAVFDYWGQGTLVTVSS
VL: EIVMTQSPATLSVSPGGRATLSCRASQSVSSNLAWYQQKPGQAPRLLIYGASTRATGIPVRFSGSGSGTEFTLTISSLQSEDFAVYYCQQYNNWPTSWTFGQGTKVEIK
B3: 007-124 (antibody, human IgG1, V domains shown)
VH: EVQLVESGGGVGRPGGSLRLSCAASGFTFDDYGMSWVRQVPGKGLEWVSGINWSGADTGYADSVKGRFTISRDNAKNSLYLQMNSLRVEDTALYHCAREVGIAVTGYWFDPWGQGTLVTV
VL: SYELTQPPSVSVAPGQTARISCGGNHSESVHWYQQKPGQAPVLVVYDDSDRPSGIPERFSGSKSGNTATLTISRVEGGDEAEYYCQVWDSSSDHPGVVFGGGTKLTVL
notes: also called 007-124-HC; 007-124-LC
B4: 007-169 (antibody, V domains shown)
VH: EVQLVQSGAEVKKPGESLKISCKGSGYSFTSYWIGWVRQMPGKGLEWMGIIYPGDSDTRYSPSFQGQVTISADKSISTAYLQWSSLKASDTAMYYCARDYGDYYFDYWGQGTLVTVSS
VL: QSALTQPRSVSGSPGQSVTISCTGTSSDVGGYNYVSWYQQHPGKAPKLMIYDVSKRPSGVPDRFSGSKSGNTASLTISGLQAEDEADYYCCSYAGSYTGVFGEGTKLTVL
notes: also called 007-169-HC; 007-169-LC
B5: 007-142 (antibody, V domains shown)
VH: B4 VH
VL: LTQPRSVSGSPGQSVTISCTGTSSDVGGYNYVSWYQQHPGKAPKLMIYDVSKRPSGVPDRFSGSKSGNTASLTISGLQAEDEADYYCCSYAGSYTGVFGGGTKLTVL
notes: also called 007-142-HC; 007-142-LC
B6: 003-109 (antibody, V domains shown)
VH: VQLVESGGGVVQPGRSLRLSCAASGFTFSSYGMHWVRQAPGKGLEWVAVIWYDGSNKYYADSVKGRFTISRDNSKNTLYLQMNSLRAEDTAVYYCARRHYDFDAFDIWGQGTMVTVSS
VL: QSALTQPASVSGSPGQSITISCTGTSSDVGGYNYVSWYQQHPGKAPKLMIYEVSNRPSGVSNRFSGSKSGNTASLTISGLQAEDEADYYCSSYTSSSTLYVFGTGTKVTVL
notes: also called 003-109-HC; 003-109-LC

The binders below were run against T1, NR1 construct with mutation N368Q (human, UniProt Q05586 19-938) (assay: immunofluorescence staining of HEK293 cells transfected with NR1 N368Q).
T1 construct: whole, on cells; also called mutated NR1 construct; the mutant
Procedure: The cDNA of the human ionotropic glutamate N-methyl-D-aspartate 1 receptor (GRIN1) was kindly provided by Prof. Dr. Wanker (MDC, Berlin) and cloned into pBudCE4.1 (Life Technologies). NR1 DNA (1 μg) was mixed with 3 μg PEI and 100 μl 150 mM NaCl, vortexed and incubated for 10 min, and HEK293 cells were transiently transfected. Two days later, HEK293 cells on cover slips were fixed with methanol at −20° C. for 4 min. In addition, HEK293 cells transfected with a different NMDAR clone, leucine-rich glioma-inactivated 1 (LGI1), contactinassociated protein 2 (Caspr2), α-amino-3-hydroxy-5-methyl-4-isoxazolepropionic acid (AMPA) receptor, and gamma-aminobutyric acid b (GABAb) receptor were used (Autoimmune-Enzephalitis-Mosaik 1, Euroimmun, Lübeck, Germany). For staining with monoclonal antibodies and control antibodies, cells were washed in PBS, preincubated with 5% normal goat serum containing 2% bovine serum albumin and 0.1% Triton X-100, and incubated with antibodies starting at a 1:2 dilution of the cell culture supernatant overnight at 4° C. Secondary fluorescently labeled anti-human IgG antibodies were used for visualization. Sections were washed in PBS and coverslips mounted with Immu-Mount (ThermoScientific).
Point mutation N368Q was introduced into the NR1 construct using the Stratagene QuikChange Mutagenesis kit according to manufacturer's instructions and the mutant transiently transfected into HEK293 cells as described previously (Doss et al, 2014). Staining of HEK293 cells expressing natural and mutated NR1 construct was performed as described above.

Binder	binding result
B1	no binding
B2	no binding
B3	no binding
B4	no binding
B5	no binding
B6	no binding
